Measurements: paper PMC7387808 (Cellular and Molecular Immunology, 2020)

Target: T1, TOM70 (full-length, recombinant, analyte of the BLI) (human, UniProt O94826 1-608)
T1 construct: also called Mitochondrial import receptor subunit TOM70
T1 sequence (looked up): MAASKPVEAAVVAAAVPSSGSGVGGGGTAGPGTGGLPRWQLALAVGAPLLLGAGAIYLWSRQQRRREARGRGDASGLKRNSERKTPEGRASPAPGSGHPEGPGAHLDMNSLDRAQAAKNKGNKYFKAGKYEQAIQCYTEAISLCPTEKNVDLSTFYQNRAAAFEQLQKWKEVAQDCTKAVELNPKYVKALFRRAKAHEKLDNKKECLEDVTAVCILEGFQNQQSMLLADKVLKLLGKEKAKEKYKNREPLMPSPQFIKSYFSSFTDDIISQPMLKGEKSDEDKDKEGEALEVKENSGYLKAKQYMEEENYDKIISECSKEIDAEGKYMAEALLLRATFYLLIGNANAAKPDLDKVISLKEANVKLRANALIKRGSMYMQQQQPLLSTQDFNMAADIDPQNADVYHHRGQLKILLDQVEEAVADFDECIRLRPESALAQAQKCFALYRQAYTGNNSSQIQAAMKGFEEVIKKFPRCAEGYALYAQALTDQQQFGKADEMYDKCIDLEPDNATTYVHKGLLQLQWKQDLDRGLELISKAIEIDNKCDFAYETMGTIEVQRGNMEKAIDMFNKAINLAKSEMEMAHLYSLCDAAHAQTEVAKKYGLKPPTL
Assay: BLI; […]; kinetics ([…]) buffer 1x PBS pH 7.4, 0.1% BSA, 0.02% Tween-20; association 5 min, dissociation 5 min; […]; 1:1 global fit
Conditions: both partners purified

B1: SARS-CoV Orf9b, biotinylated (C-terminal Avi-His6) (natural protein)
chain: MDPNQTNVVPPALHLVDPQIQLTITRMEDAMGQGQNSADPKVYPIILRLGSQLSLSMARRNLDSLEARAFQSTPIVVQMTKLATTEELPDEFVVVTAK
notes: also called Biotinylated Orf9b
Kd: 41.6 ± 1.01 nM
koff: 0.00244 s⁻¹
kon: 58600 M⁻¹ s⁻¹
